Reference: the nanobody polyreactivity screen of Harvey et al. (2022)

Assay: yeast display, Sf9 membrane polyspecificity reagent, FACS + sequencing; frameworks hold sequencing errors
Outline: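 Polyreactivity labels are assigned by the sorting gate from which each nanobody was recovered. The gates were low and high (top ~1%), set on anti-HA fluorescence for expression and streptavidin fluorescence for reagent binding. Before sorting, galactose-induced (36–48 hours) yeast display cells were stained for 1 hour at 4 °C with 10% biotinylated, detergent-solubilized Sf9 membrane reagent.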

**Q.** With “QVQLVESGGGLVQAGGSLRLSCAASGRNFSTYAMGWYRQAPWKERELVAAINKIGGSTYYADSVKGRFTISRDNAKNTVYLQMNILKPEDTAVYYCAADAPYYPVRRYYYWGQGTQVTVSS” as the sequence, how does the “polyreactivity (PSR sort gate)” value read?
**A.** low polyreactivity

**Q.** Which “polyreactivity (PSR sort gate)” value does the source give for “QVQLVESGGGLVQAGGSLRLSCAASGRTFWLNAMGWYRQAPGKERELVATISRGGSTNYADSVKGRFTISRDNANNTVYLQMNSLKPEDTAVYYCAARRYYWLRGYNYWGQGTQVTVSS” here?
**A.** high polyreactivity

**Q.** With “QVQLVESGGGLVQAGGSLRLSCAASGIILLRYTMGWYRQAPGKERELVAAISRSAGRTYYADSVKGRFTISRDNAKNTVYLQMNSLKPEDTAVYYCNKASWYNGEIDYWGQVTQVTVSS” as the sequence, how does the “polyreactivity (PSR sort gate)” value read?
**A.** high polyreactivity

**Q.** With “QVQLVESGGGLVQEGGSLRLSCASSGITFYSNAMGWYRQAPGKERELVATITRGGSTYYADSVKGRFTISRDNAKTTVYLHMNSLKPEDTAVYYCAADYSYRGREYGYWGQGTQVTVSS” as the sequence, how does the “polyreactivity (PSR sort gate)” value read?
**A.** low polyreactivity

**Q.** For “QVQLVESGGGLVQAGGSLRLSCAASGRTFRFYAMGWYRQAPGKERELVAAISASGGGTYYADSVKGRFTISRDNAKHTVYLQMNCLKPEDTAVYYCATRRSYKYYWGQGTQVTVSS”, which “polyreactivity (PSR sort gate)” value is on record?
**A.** high polyreactivity

**Q.** For “QVQLVESGGALDQAGGSLRVSCAASGSIFPIYTMGWYRQAPGKERELVAGIRYRGGNTYYADSVKGRFTISRDNAKNTVYLQMNSLNPEDTAVYYCAARAYYRYLYKLNYWGQGTQVTVSS”, which “polyreactivity (PSR sort gate)” value is on record?
**A.** high polyreactivity

**Q.** For “QDQLVESGGGLVQAGGSLRLICAASGYIFVYNAMGWYRQTPWKERELVAAITDGGGSTYADSVKGRFTISRDNAKNSVYLQMNSLKPEDTAVYYCSARYSDTTWYVLYYYWGQGTQVTVSS”, which “polyreactivity (PSR sort gate)” value is on record?
**A.** low polyreactivity

**Q.** For “QVQLVESGGGLVQAGGSLRLSCAASGSIFVKYAMGWYRQAPGKERELVAAISRRGGSTNYADSVKGRFTISRDNAKNTVYLQMNSLKPEDTAVYYCNAQTVTSYGGDSWGQGTQVTVSS”, which “polyreactivity (PSR sort gate)” value is on record?
**A.** high polyreactivity

**Q.** With “QVQLQESAAGLVQAGGGLRLSCPASGTISGPHVMGWYRQSPGKEREFVAAINVGANTYYADNVKGRFTISRDNAKNTVYLQMNSLKPEDTGVYYCAAVYYGDIGHEYWGQGTQVTVSC” as the sequence, how does the “polyreactivity (PSR sort gate)” value read?
**A.** low polyreactivity

**Q.** Which “polyreactivity (PSR sort gate)” value does the source give for “QVQLVESGGGLVQAGGSLRLSCAASGFIFIINAMGWYRQAPGKEREFVAAITGSGGSTYYADSVKGRFTISRDNAKNTVYLQMNSLKPEDTAVYYCAKVGPYYSGKVYGRTYYSRYGYWGQGTQVTVSS” here?
**A.** low polyreactivity

**Q.** With “QVQLVESGGGLVQAGGSLRLSCAASGSTFGYYAMGCYRQAPGKERELVAAITSGGSTKYADSVKGRFTISRDNAKNTVYLQMNSLKPEDTAVYYCATSRYFGYGFWGQGTQVTVSS” as the sequence, how does the “polyreactivity (PSR sort gate)” value read?
**A.** low polyreactivity

**Q.** For “QVQLVESGGGLVQAGGSLRLSCAASGIIFRYYAMGWYRQAPGKERELVASITARSGSTYYADSVKGRFTISRDNAKNTVYLQMNSLKPEDTAVYYCAKSGKPARYYYWGQGTQVTVSS”, which “polyreactivity (PSR sort gate)” value is on record?
**A.** high polyreactivity

**Q.** For “QVQLVESGGGFVQAGRSLRLSCAASGSTFYIYAMGWSRQAPGKEREMVADISRGDSTNYADSVKGRFTISRDNAKNPVYLQLNSLKPEDTAVYYCNAAFRGERDWFSGRRYKFDYWGQGTQVTVSS”, which “polyreactivity (PSR sort gate)” value is on record?
**A.** low polyreactivity

**Q.** Which “polyreactivity (PSR sort gate)” value does the source give for “QVQLVESDGGLDQAGRSLRLSFAASGTIFDPYSMGWYRQEPGKERELVAAISWSDSSTYYADSVKGRFTISRDNAKNTVYLQKNSLKPEDTAVYYCASDYDLYFYLYEYWGQGTQVTVSS” here?
**A.** high polyreactivity

**Q.** With “QVQLVESGGGLVQAGGSLRLSCASSGIIFTFNAKGWYRQAPGKERELVAAISGRGARTYYADSVKGRFTISRDNAKNTVYLKMKSLKPEDTAVYYCAAPSNSYRSLSNSYQYYYWGQGSQVTVSS” as the sequence, how does the “polyreactivity (PSR sort gate)” value read?
**A.** high polyreactivity

**Q.** Which “polyreactivity (PSR sort gate)” value does the source give for “QVQLVESGGGLVQAGGSLRLSCAASGNIFLYYAMGWSRQAPGKERELVADIDSSGASTYYADSVKGRFTISRDNAKNTVYLQMNSLKPEDTAVYYCAAEFHWWYAGYDYGYWGQGTQVTVSS” here?
**A.** low polyreactivity

**Q.** Which “polyreactivity (PSR sort gate)” value does the source give for “QVQLVESGGGLVQAGGSLRLSCAASGSIFGNAMGWYRQAPGKERELVAAITRGVSTYYADSVKGRFTISRDNAKNTVYLQMNSLKPEDTAVYYCNKTYVRGVHGVYLPITSYDYWGQGTQVTVSS” here?
**A.** low polyreactivity

**Q.** For “QVQLVESGGGLVQAGGSLRLSCAASGFTFKYYALGWYRQAPGKERELVAAIRGSGAGTYYADSVKGRFTISRDNSKNTVYLQMNSLKPEDTAVYYCNNRWTYKWDDYWGQGTQVTVSS”, which “polyreactivity (PSR sort gate)” value is on record?
**A.** high polyreactivity

**Q.** With “QVQLVESGGGLVQAGGSLRLSCAASGFTFTIYAMGWYRPAPGKEMELVAAITGRGGSTYYADSVKGRFTISRDNAKNTVYLRMNSLKPEDTAVYYCADSQRSGHPSYDYWGQGTQVTVSS” as the sequence, how does the “polyreactivity (PSR sort gate)” value read?
**A.** high polyreactivity

**Q.** With “QVQLVESGGGLVQAGGSLRLSCAASGFIFLRYGMGWYRQAPGKERELVASIDSSGGSTYADSVKGRFTISRDNEKNTVFLQMKSLKPEDTAVYYCAADYYIVSVRDYWGQGTQVTVSS” as the sequence, how does the “polyreactivity (PSR sort gate)” value read?
**A.** low polyreactivity

**Q.** With “QVQLVESGVGLVQAGGSLRLSCAASGRIFYYNAMGWYRQAPGKVRELVASISWDASSTYYADSVKGRFTISRDNAKNTVYLQMNSLKPEDTAVYYCNKKHLYRQYDYWGQGTQVTVTS” as the sequence, how does the “polyreactivity (PSR sort gate)” value read?
**A.** low polyreactivity

**Q.** With “QVQLVESGGGLVQAGGSLRLSCAASGRIFLGYAMGWYRQPPGKVSELVAAINSVASTNYADSVKGRFTISRDNAKNTVYLQMNSLKPEDTAVYYCAAVYFLVQSDLPAYDYWGQGTLVTVSS” as the sequence, how does the “polyreactivity (PSR sort gate)” value read?
**A.** low polyreactivity

**Q.** For “QVQLVESRGGLVQAGGSLRLSCAASGSTSRTYAMGWYRQAPGKEMELVAAISSSGGRTYYADSVKGRFTISRDNAKNTVYLLMNSLKPEDTAVYYCNARTYSYRGYNYWGQGTQVTVSS”, which “polyreactivity (PSR sort gate)” value is on record?
**A.** high polyreactivity

**Q.** With “QVQLVESGGGLVQAGGSLRLSCAASGRTFRGYAMGWYRQAPGKERELVAAITSGGSTNYADSVKGRFTISRDNAKNTVYLQMNSLKPEDTAVYYCAAGRSTGQYRYYYWGQGTQVTVSS” as the sequence, how does the “polyreactivity (PSR sort gate)” value read?
**A.** high polyreactivity

**Q.** Which “polyreactivity (PSR sort gate)” value does the source give for “QVQLVESGGGLVQAGGRLRLSCAASGSIFRYYAMGWYRQATGKERELVAAITRGDSTNYADSVKGRFTISRDNAKNTVYLQMNSLKPEDTAVYYCAASRYHGWYVKMGYWGQGTQVTVSS” here?
**A.** high polyreactivity

**Q.** With “QVQLVESGGGLVQAGGSLRLSCAASGSTFPSYAMGWYRQAPGKERELVASITSSGGSTYYADSVKGRFTISRDNAKNTVYLQMNSLKPEDTAVYYCNARRYYYSWGREGGYWGQGTQVTVSS” as the sequence, how does the “polyreactivity (PSR sort gate)” value read?
**A.** low polyreactivity

**Q.** With “LVQLQESGGGLVQAGGSLRLSCAASGTISPGGYMGWYRQAPGQERELVASINVGGSTNYADSVKGRFTISRDNAKNPVDLQMNSLKPEDNAVYYCAVWGRNRLQLSYWGQGTQVTVSS” as the sequence, how does the “polyreactivity (PSR sort gate)” value read?
**A.** low polyreactivity

**Q.** With “QVQLVESGGGLVQAGGSLRLSCAASGRTFNVYAMGWYRQAPGKERELVAVITNGGSTNYADSVKGRFTISRDNAKNTVYLQMNSLKPEDTAVYYCAGDYYASLTREDRDDYWGQGTQVTVSS” as the sequence, how does the “polyreactivity (PSR sort gate)” value read?
**A.** low polyreactivity

**Q.** With “QVQLVESGGGLVQAGGSLRVSCAASGRTCRYYAMGWYRQEHGTEREWVAVISWSGGTTRYADSVKGRFTISRDNAKNTVYIQMNSLKPEDTAVYYCAARVSVWYNYWGQGTQVTVSS” as the sequence, how does the “polyreactivity (PSR sort gate)” value read?
**A.** high polyreactivity

**Q.** For “QVQLVESGGGLVQAGGSLRLSCAASGSIFYSYAMGWYRQAPGKERELVAGIRSDGNTNYADSVKGRFTISRDNAKNTVYLQMNSLKPEDTAVYYCARLRYFLLNGSLRYGTSDRDYWGQGTQVTVSS”, which “polyreactivity (PSR sort gate)” value is on record?
**A.** high polyreactivity

**Q.** Which “polyreactivity (PSR sort gate)” value does the source give for “QVQLVESGGGLVQAGGSLRLSCAASVFTFPPYAMGWSRQAPGKERELVAAISSAGSTKYADSVKGRFTISRDNAKNTVYLQMNSLKPEDTAVYYCAARWARSYDYWGQGTQVTVSS” here?
**A.** low polyreactivity

**Q.** With “QVQLVESGGGLVQAGGSLRLSCAASGIIFSSYAMGWYRQAPGKERELVAAISTSGGRTYYADSVKGRFTISRDNAKNTVYLQMNSLKPKDTAVYYCAARYGYWGQGTQVTVSS” as the sequence, how does the “polyreactivity (PSR sort gate)” value read?
**A.** high polyreactivity
